Patent publication US20220363763A1 (ABL BIO, published 2022)

Key:
human PD-L1-Fc protein [1] = target: T1, human PD-L1-Fc protein (human, UniProt Q9NZQ7 19-239); test: ELISA on coated PD-L1-Fc
T1 construct: Coated on ELISA plates; also called huPD-L1; not shown: Fc part

human PD-L1-Fc protein [2] = target: T1, human PD-L1-Fc protein; test: ELISA receptor blocking, coated PD-L1-Fc, competitor biotin PD-1-Fc
Experimental: To evaluate the blocking effect of HL1210-3 mouse mAb on recombinant human PD-L1 to bind to its receptor PD-1, the ELISA based receptor blocking assay was employed. Briefly, microtiter plates were coated with human PD-L1-Fc protein at 1 μg/ml in PBS, 100 μl/well at 4° C. overnight, then blocked with 100 μl/well of 5% BSA. 50 μl biotin-labeled human PD-1-Fc protein and 3-fold dilutions of HL1210-3 antibodies starting from 2 μg/ml at 50 μl were added to each well and incubated for 1 hour at 37° C. The plates were washed with PBS/Tween and then incubated with Streptavidin-HRP for 1 hour at 37° C. After washing, the plates were developed with TMB substrate and analyzed by spectrophotometer at OD 450-630 nm.

[3] = target: T2, human PD-L1 expressed on mammalian cells (human, UniProt Q9NZQ7 19-290); test: FACS receptor blocking on PDL1-CHOK1 cells, competitor biotin huPD-1
T2 construct: whole, on cells; also called PDL1-CHOK1 cells; PDL1-Raji cells
Experimental: (§1) To evaluate the blocking effect of HL1210-3 mouse mAb on human PD-L1 expressed on mammalian cells to bind to its receptor PD-1, the FACS-based receptor blocking assay was used. Briefly, PDL1-CHOK1 cells were firstly incubated with 3-fold serious diluted HL1210-3 mouse mAb starting at 20 μg/ml at RT for 1 hour. After wash by FACS buffer (PBS with 2% FBS), the biotin-labeled huPD-1 was added to each well and incubated at RT for 1 hour. Then, the Streptavidin-PE was added to each well for 0.5 hour post twice wash with FACS buffer. The mean florescence intensity (MFI) of PE was evaluated by FACSAriaIII.

[4] = target: T3, human PD-L1-his taq protein (human, UniProt Q9NZQ7 19-239, limits assumed); test: SPR Biacore T200, antibody captured by anti-mouse Fc, PD-L1-his injected
T3 construct: also called recombinant PD-L1 protein; recombinant human PD-L1; not shown: his tag
Experimental: The binding of the HL1210-3 antibodies to recombinant PD-L1 protein (human PD-L1-his taq) was tested with BIACORE™ using a capture method. The HL1210-3 mouse mAb was captured using anti-mouse Fc antibody coated on a CM5 chip. A series dilution of human PD-L1-his taq protein was injected over captured antibody for 3 mins at a flow rate of […]. The antigen was allowed to dissociate for 900 s. All the experiment were carded out on a Biacore T200. Data analysis was carried out using Biacore T200 evaluation software.

[5] = target: T2, human PD-L1 expressed on mammalian cells; test: FACS-based receptor blocking on PDL1-CHOK1 cells; blocked ligand biotin-labeled huPD-1; unit from the x axis Log [Con. M]; the text prints the rounded 2.56 nM
Experimental: as §1

B7-DC = target: T4, B7-DC (human, UniProt Q9BQ51 20-220, limits assumed); test: ELISA
T4 sequence (looked up): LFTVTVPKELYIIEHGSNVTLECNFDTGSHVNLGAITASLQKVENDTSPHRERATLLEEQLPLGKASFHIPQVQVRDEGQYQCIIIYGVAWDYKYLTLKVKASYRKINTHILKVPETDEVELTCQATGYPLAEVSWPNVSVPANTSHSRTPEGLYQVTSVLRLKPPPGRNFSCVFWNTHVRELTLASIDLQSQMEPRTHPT

B7-2 = target: T5, B7-2 (human, UniProt P42081 24-247, limits assumed); test: ELISA
T5 sequence (looked up): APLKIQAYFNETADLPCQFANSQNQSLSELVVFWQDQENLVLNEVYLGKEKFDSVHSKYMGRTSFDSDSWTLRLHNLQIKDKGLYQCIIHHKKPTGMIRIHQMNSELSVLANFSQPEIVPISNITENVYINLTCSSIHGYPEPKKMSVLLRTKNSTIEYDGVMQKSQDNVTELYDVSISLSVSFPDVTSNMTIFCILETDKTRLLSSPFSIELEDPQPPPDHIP

B7-H2 = target: T6, B7-H2 (human, UniProt O75144 19-258, limits assumed); test: ELISA
T6 sequence (looked up): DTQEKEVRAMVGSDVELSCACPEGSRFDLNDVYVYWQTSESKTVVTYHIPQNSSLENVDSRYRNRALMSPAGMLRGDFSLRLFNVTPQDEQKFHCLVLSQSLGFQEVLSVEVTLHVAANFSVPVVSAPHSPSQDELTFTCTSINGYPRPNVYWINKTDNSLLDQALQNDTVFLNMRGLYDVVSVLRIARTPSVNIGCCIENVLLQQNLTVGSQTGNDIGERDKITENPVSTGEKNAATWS

CD28 = CD28 (human, UniProt P10747 19-152); test: ELISA
CTLA4 = CTLA4 (human, UniProt P16410 36-161, limits assumed); test: ELISA
ICOS = target: T7, ICOS (human, UniProt Q9Y6W8 21-140, limits assumed); test: ELISA
T7 sequence (looked up): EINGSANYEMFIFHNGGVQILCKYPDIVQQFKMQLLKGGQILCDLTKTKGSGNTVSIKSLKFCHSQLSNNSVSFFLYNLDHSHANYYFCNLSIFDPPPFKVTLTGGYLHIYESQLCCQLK

BTLA = BTLA (human, UniProt Q7Z6A9 31-157, limits assumed); test: ELISA
huPD-1 = target: T8, huPD-1 (human, UniProt Q15116 25-167, limits assumed, biotin-labeled in the FACS blocking assays); test: ELISA
T8 construct: also called biotin-labeled huPD-1; Bio-PD1

B7-1 protein = target: T9, B7-1 protein (human, UniProt P33681 35-242, limits assumed, biotin-labeled in the blocking assay); test: ELISA
T9 construct: also called human B7-1; biotin-labeled B7-1
T9 sequence (looked up): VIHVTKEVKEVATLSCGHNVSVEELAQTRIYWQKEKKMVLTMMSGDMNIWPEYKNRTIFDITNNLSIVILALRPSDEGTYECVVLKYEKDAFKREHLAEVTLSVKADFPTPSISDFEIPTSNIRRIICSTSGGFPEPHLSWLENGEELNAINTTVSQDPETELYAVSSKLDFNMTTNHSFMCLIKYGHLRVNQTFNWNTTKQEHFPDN

mouse PD-L1-Fc protein = target: T10, mouse PD-L1-Fc protein (mouse, UniProt Q9EP73 19-238, limits assumed); test: ELISA on coated PD-L1-Fc
T10 construct: not shown: Fc part
Experimental: (§2) To evaluate the binding of humanized antibodies to huPD-L1, Mouse PD-L1, Rat PD-L1, […], the antibodies were performed for the ELISA testing. Briefly, microtiter plates were coated with human, mouse, rat and rhesus PD-L1-Fc protein at 1 μg/ml in PBS, 100 μl/well at […] overnight, then blocked with […] of 5% BSA. Three-fold dilutions of humanized antibodies starting from 1 μg/ml were added to each well and incubated for 1-2 hours at RT. The plates were washed with PBS/Tween and then incubate with […] antibody conjugated with Horse Radish Peroxidase (HRP) for 1 hour at RT. After washing, the plates were developed with TMB substrate and analyzed by spectrophotometer at OD 450-630 nm. The Hu1210-41 antibody can bind to rhesus PD-L1 with lower affinity and cannot bind to rat and mouse PD-L1 (FIG. 8 & Table 12).

rat PD-L1-Fc protein = rat PD-L1-Fc protein (rat, UniProt D4AE25 19-239); test: ELISA on coated PD-L1-Fc
Experimental: as §2

human PD-L1-Fc protein [6] = target: T1, human PD-L1-Fc protein; test: ELISA on coated human PD-L1-Fc
Experimental: as §2

rhesus PD-L1-Fc protein = target: T11, rhesus PD-L1-Fc protein (rhesus, UniProt F6PJN1 19-239); test: ELISA on coated rhesus PD-L1-Fc
T11 construct: not shown: Fc part
Experimental: as §2

[7] = target: T3, human PD-L1-his taq protein; test: SPR Biacore T200, antibody captured, PD-L1-his injected
How it was run: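 HL1210-3 mouse mAb was captured via anti-mouse Fc antibody on a CM5 chip, then serially diluted PD-L1-his was injected for 3 min […]. Dissociation was followed for 900 s.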

human PD-L1-Fc protein [8] = target: T1, human PD-L1-Fc protein; test: ELISA on coated human PD-L1-Fc; table row 'Human PD-L1', no unit in the table, x axis Ab(nM); Table 12 of the text prints 0.215 nM
Experimental: as §2

human PD-L1-Fc protein [9] = target: T1, human PD-L1-Fc protein; test: receptor blocking assay, panel B7-1; blocked ligand biotin-labeled B7-1 protein; by paragraph 296 an ELISA on coated PD-L1-Fc, though the sheet is headed 'Cell based receptor blocking assay'
How it was run: (§3)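 IC50 values came from the curve of a protein-based receptor blocking ELISA. Wells held human PD-L1-Fc coated at 1 μg/ml in PBS (100 μl/well) overnight at 4° C and were blocked with 5% BSA for 2 hr at 37° C. A 50 μl portion of biotin-labeled human PD-1-Fc or B7-1 protein and 50 μl of a 5-fold antibody dilution series beginning at 100 nM were incubated together for 1 hour at 37° C, and streptavidin-HRP was added for a further 1 hour at 37° C.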

human PD-L1-Fc protein [10] = target: T1, human PD-L1-Fc protein; test: receptor blocking assay, panel PD1; blocked ligand biotin-labeled human PD-1-Fc; by paragraph 296 an ELISA on coated PD-L1-Fc, though the sheet is headed 'Cell based receptor blocking assay'
How it was run: as §3

T3 sequence (Q9NZQ7 19-239 limits assumed): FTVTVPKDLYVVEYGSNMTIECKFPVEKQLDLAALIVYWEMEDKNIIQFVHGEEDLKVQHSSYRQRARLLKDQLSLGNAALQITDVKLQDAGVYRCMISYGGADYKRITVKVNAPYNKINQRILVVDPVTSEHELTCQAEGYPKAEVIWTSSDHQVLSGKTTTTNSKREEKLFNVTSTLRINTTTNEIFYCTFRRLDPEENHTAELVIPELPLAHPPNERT
T1 sequence (Q9NZQ7 19-239 limits assumed): as above
T2 sequence (Q9NZQ7 19-290): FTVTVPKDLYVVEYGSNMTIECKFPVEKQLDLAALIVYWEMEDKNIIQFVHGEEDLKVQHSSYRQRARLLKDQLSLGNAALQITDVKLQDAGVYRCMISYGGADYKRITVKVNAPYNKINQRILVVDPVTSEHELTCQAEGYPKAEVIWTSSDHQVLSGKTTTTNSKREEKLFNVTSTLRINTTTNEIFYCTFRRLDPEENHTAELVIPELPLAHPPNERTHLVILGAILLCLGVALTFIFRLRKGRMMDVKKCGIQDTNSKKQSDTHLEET
T8 sequence (Q15116 25-167 limits assumed): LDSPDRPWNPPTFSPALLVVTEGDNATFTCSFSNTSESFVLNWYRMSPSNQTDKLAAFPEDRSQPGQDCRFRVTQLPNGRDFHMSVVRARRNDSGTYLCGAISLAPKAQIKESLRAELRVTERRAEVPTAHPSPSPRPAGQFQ
rat PD-L1-Fc protein, sequence (D4AE25 entry or part of it limits assumed): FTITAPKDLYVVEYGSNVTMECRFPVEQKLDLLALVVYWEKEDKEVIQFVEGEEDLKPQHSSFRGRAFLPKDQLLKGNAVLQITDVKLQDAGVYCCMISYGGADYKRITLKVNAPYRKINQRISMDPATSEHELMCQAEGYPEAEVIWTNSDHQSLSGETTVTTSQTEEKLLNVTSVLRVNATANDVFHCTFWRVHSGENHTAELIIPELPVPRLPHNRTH
T10 sequence (Q9EP73 19-238 limits assumed): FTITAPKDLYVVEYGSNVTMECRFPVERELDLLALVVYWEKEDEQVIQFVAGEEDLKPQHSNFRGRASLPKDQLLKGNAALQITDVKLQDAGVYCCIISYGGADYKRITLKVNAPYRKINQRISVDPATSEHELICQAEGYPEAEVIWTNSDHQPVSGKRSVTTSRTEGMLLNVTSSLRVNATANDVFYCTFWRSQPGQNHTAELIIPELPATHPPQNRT
CTLA4, sequence (P16410 36-161 limits assumed): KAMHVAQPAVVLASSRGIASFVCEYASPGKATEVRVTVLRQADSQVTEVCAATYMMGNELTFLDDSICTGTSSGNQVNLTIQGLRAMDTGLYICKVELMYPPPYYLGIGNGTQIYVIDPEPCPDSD

B1: HL1210-3 mouse mAb (antibody, V domains shown)
VH: EVKLVESGGDLVKPGGSLKLSCAASGFTFSSYDMSWVRQTPEKSLEWVATISDGGGYIYYSDSVKGRFTISRDNAKNNLYLQMSSLRSEDTALYICAREFGKRYALDYWGQGTSVT
VL: DIVMTQSHKFMSTSVGDRVSISCKASQDVTPAVAWYQQKPGQSPKLLIYSTSSRYTGVPDRFTGSGSGTDFTFTISSVQAEDLAVYYCQQHYTTPLTFGAGTKLELK
notes: Mouse monoclonal antibody purified from hybridoma; also called hybridoma clone HL1210-3
B1 gave an EC50 (human PD-L1-Fc protein [1]) of 5.54 ng/mL, an IC50 (human PD-L1-Fc protein [2]) of 0.783 nM and an IC50 [3] of 2.56 nM. It also gave a Kd [4] of 0.293 nM, a koff [4] of 4.69e-05 s⁻¹ and a kon [4] of 161000 M⁻¹ s⁻¹. For the same binder, the IC50 [5] was 2.56 nM.

B2: Hu1210-41 (antibody, V domains shown)
VH: EVQLVESGGGLVQPGGSLRLSCAASGFTFSSYDMSWVRQAPGKSLEWVATISDAGGYIYYSDSVKGRFTISRDNAKNSLYLQMNSLRDEDTAVYICAREFGKRYALDYWGQGTTVTVSS
VL: DIQMTQSPSSLSASVGDRVTITCKASQDVTPAVAWYQQKPGKAPKLLIYSTSSRYTGVPSRFSGSGSGTDFTFTISSLQPEDIATYYCQQHYTTPLTFGQGTKLEIK
notes: Hu1210 VH.4d x Vk.1; human gamma 1 / kappa constant domains; also called H12; Hu1210 VH.4d x Hu1210 Vk.1
B2: no binding (B7-DC); no binding (B7-2); no binding (B7-H2). B2: no binding (CD28); no binding (CTLA4); no binding (ICOS). B2: no binding (BTLA); no binding (huPD-1); no binding (B7-1 protein). For the same binder, the binding result (mouse PD-L1-Fc protein) was “no binding (tested: 1 µg/ml (highest concentration))”, the binding result (rat PD-L1-Fc protein) was “no binding (tested: 1 µg/ml (highest concentration))” and the EC50 (human PD-L1-Fc protein [6]) was 0.215 nM. The EC50 (rhesus PD-L1-Fc protein) was 0.628 nM, the Kd [7] was 0.378 nM and the koff [7] was 3.46e-05 s⁻¹. For the same binder, the kon [7] was 91700 M⁻¹ s⁻¹, the EC50 (human PD-L1-Fc protein [8]) was 0.21 nM and the “IC50 (read off the curve)” value (human PD-L1-Fc protein [9]) was about 0.9 nM. The “IC50 (read off the curve)” value (human PD-L1-Fc protein [10]) was about 1 nM.
